Results on one molecule are retold here after patent US20070003522A1 (published 2007).

The target of this experiment is T1, mouse transferrin receptor 1 (TfR1) on TRH3 cells (293T cells stably expressing mouse TfR1) (mouse, UniProt Q62351 1-763).
T1 construct: whole, on cells; also called mTfR1; CD71
As to the kind of experiment: FACS on TRH3 cells, anti-TfR1 antibody staining after incubation with pseudovirus.

T1 sequence (Q62351 whole entry): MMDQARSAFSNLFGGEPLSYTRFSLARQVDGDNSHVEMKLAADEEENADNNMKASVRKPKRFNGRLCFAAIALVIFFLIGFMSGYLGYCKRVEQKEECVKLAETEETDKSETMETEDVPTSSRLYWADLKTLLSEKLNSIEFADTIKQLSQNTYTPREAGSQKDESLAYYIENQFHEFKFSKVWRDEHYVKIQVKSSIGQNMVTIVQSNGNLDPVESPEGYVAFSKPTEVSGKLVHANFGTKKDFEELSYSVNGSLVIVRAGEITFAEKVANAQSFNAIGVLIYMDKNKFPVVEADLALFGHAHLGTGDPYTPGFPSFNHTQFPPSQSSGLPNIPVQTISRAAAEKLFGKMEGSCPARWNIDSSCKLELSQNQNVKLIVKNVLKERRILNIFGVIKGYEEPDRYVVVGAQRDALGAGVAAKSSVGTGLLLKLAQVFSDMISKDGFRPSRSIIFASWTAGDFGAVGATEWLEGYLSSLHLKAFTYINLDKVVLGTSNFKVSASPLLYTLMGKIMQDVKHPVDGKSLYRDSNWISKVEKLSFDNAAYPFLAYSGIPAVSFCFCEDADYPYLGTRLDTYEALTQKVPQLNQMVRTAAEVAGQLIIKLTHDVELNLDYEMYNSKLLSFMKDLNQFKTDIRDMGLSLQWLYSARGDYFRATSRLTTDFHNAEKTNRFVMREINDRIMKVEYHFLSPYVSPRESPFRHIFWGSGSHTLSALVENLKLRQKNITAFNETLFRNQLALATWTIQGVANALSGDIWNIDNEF

B1: wild-type MMTV (C3H strain) env protein on pseudotyped MoMLV virus (other)
chain: ESYWAYLPKPPILHPVGWGNTDPIRVLTNQTIYLGGSPDFHGFRNMSGNVHFEGKSDTLPICFSFSFSTPTGCFQVDKQVFLSDTPTVDNNKPGGKGDKRRMWELWLTTLGNSGANTKLVPIKKKLPPKYPHCQIAFKKDAFWEGDESAPPRWLPCAFPDQGVSFSPKGALGLLWDFSLPSPSVDQSDQIKSKKDLFGNYTPPVNKEVHRWYEAGWVEPTWFWENSPKDPNDRDFTALVPHTELFRLVAASRYLILKRPGFQEHDMIPTSACVTYPHAILLGLPQLIDIEKRGSTFHISCSSCRLTNCLDSSAYDYAAIIVKRPPYVLLPVDIGDEPWFDDSAIQTFRYATDLIRAKRFVAAIILGISALIAIITSFAVATTALVKEMQTATFVNNLHRNVTLALSEQRIIDLKLEARLNALEEVVLELGQDVANLKTRMSTRCHANYDFICVTPLPYNASESWERTKAHLLGIWNDNEISYNIQELTNLISDMSKQHIDTVDLSGLAQSFANGVKALNPLDWTQYFIFIGVGALLLVIVLMIFPIVFQCLAKSLDQVQSDLNVLLLKKKKGGNAAPAAEMVELPRVSYT
notes: On virions it is processed into SU (gp52) and TM (gp36); also called wild type pseudovirus; wt
Turning to B1, the binding result is on record as “binds”.
